Patent US20200385479A1 (LYVGEN BIOPHARMA, published 2020)

Columns and labels:
[1] = target: T1, CD137 antigen (Octet antigen binding assay) (UniProt Q07011 24-186, limits assumed); test: BLI, Octet Red 96, antibody on anti-human Fc (AHC) biosensors, 1:1 model
T1 construct: also called 4-1BB; TNFRSF9
Experimental: The chimeric antibodies were tested in an antigen binding assay on Octet Red 96 to estimate binding kinetics. Antibodies were loaded onto anti-human Fc (AHC) biosensors. Loaded sensors were dipped into a serial dilution of each […] (300 nM, 1:3 down, 7 points) in assay buffer (PBS with 0.1% BSA, 0.02% Tween-20 (pH 7.2)).

[2] = target: T2, human CD137-His tag protein; test: ELISA, plate coated with human CD137-His at 1 ug/ml, anti-human IgG-HRP, A450
T2 construct: It differs from the cell-surface CD137 and the Octet antigen; also called Sino Biological Inc. Cat #10377-H08H-100; not shown: C-terminal His tag of the vendor's product (Sino Biological Cat #10377-H08H-100)
Experimental: CD137 protein (human CD137-His tag protein (Sino Biological Inc. Cat #10377-H08H-100) or rhesus monkey CD137-His (Sino Biological Inc. Cat #90305-K08H-100)) was diluted in PBS to 1 ug/ml and used to coat an ELISA plate (Corning, Cat #9018, high binding) at a concentration of 50 ul/well. The plate was incubated overnight at 4° C. The plate was then decanted and washed with PBS-T, and 200 ul/well assay diluent (1×PBS/1% BSA/0.05% Tween-20/0.05% proclin 300) was added. After a 3 hour incubation at room temperature, the plate was washed with PBS-T three times. The testing antibodies were diluted in assay diluent to 0, 0.000003, 0.00003, 0.0003, 0.003, 0.03, and 0.3 ug/ml or approximately 0, 0.00002, 0.0002, 0.002, 0.02, 0.2 and 2 nM and then added to the plate (50 ul/well). The plate was incubated for one hour at 37° C. and then washed three times with PBS-T. Anti-human IgG-HRP conjugate (Bethyl Cat #A80-319P) at a 1:10,000 dilution was added to the plate (100 ul/well). The plate was incubated for 0.5 hour at 37° C., followed by washing with PBS-T three times. The TMB substrate solution was added (100 ul/well). The color was allowed to develop for 8 minutes before it was stopped with 100 ul/well 2N H₂SO₄. Absorbance at 450 nm was determined with an ELISA reader.

T2 sequence (chain, as listed by the source limits assumed): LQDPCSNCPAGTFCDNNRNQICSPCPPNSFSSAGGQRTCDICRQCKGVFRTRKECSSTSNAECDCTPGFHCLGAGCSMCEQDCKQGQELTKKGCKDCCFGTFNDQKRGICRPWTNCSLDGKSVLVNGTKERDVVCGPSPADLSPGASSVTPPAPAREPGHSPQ

B1: LYV402 (26B3-IgG4) (antibody, V domains shown)
VH: EVKLLESGGGLVQPGGSLKLSCAASGFDFSRYWMSWVRQAPGKGLEWIGEINPDSNPINYTPSLKDKFIISRDNAKNTLYLQMSKVRSEDTALYYCARDGSSSRYFDVWGAGTTVTVSS
VL: DIVMTQSPATLSVTPGDRVSLSCRASQSISDYLHWYQQKSHESPRLLIKYVSQSISGIPSRFSGSGSGSDFTLSINSVEPEDVGVYYCQNGHSFPPTFGGGTKLEIKR
notes: Chimeric antibody, human IgG4 S228P / human kappa; also called 26B3b in hG4SP / human kappa
For B1, the Kd [1] was 2.1 nM, the koff [1] was 0.00034 s⁻¹ and the kon [1] was 160000 M⁻¹ s⁻¹. The “EC50 (read off the curve)” value [2] was about 0.005 nM.

B2: LYV372 (23D2-IgG4) (antibody, V domains shown)
VH: QVQLQQSGAELVRPGSSVKISCKASGYAFSIYWMNWVKQRPGQGLEWIGQIYPGDGYTNYNGKFKGKATLTADKSSSTAYMQLSSLTSEDSAVYFCARGQLGLDGYWGQGTTLTVSS
VL: QIVLTQSPTIMSASPGEKVTMTCSASSSVSYIYWYQQKPGSSPRLLIYDTSNLASGVPVRFSGSGSGTSYSLTISRMEAEDAATYYCQQWNIYPYTFGGGTKLEIKR
notes: Chimeric antibody, human IgG4 S228P / human kappa; also called 23D2 in human IgG4S; 23D2b in human Kappa
B2 gave a Kd [1] of 5.8 nM, a koff [1] of 0.0016 s⁻¹ and a kon [1] of 280000 M⁻¹ s⁻¹.

B3: LYV375 (22F2-IgG4) (antibody, V domains shown)
VH: EVKLVESGAELVRPGSSVKISCKASGYAFSLYWMNWVKQRPGQGLEWIGQIYPGDGYTNYNGKFKGKATLTADKSSSTAYMQLSSLTSEDSAVYFCARGQLGLDGYWGQGTTLTVSS
VL: QIVLTQSPAIMSASPGEKVTMTCSASSSVSYIYWYQQKPGSSPRLLIYDTSNLASGVPVRFSGSGSGTSYSLTISRMEAEDAATYYCQQWNIYPYTFGGGTKLEIKR
notes: Chimeric antibody, human IgG4 S228P / human kappa; also called 22F2 in human IgG4SP / human Kappa
Binder B3 has a Kd [1] of 8.2 nM, a koff [1] of 0.0023 s⁻¹ and a kon [1] of 280000 M⁻¹ s⁻¹. The “EC50 (read off the curve)” value [2] was 0.01 to 0.02 nM.

B4: LYV371 (11E10-IgG4) (antibody, V domains shown)
VH: QVQLQQSGAELVRPGASVTLSCKASGYTFAGFEMHWIKQTPVHGLGWIGAIDPKTGGTDYNQKFKDKALLTADKSSNTAYMELRSLTSEDSAVYYCTRDLGYFDVWGTGTTVTVSS
VL: DIQMTQTTSSLSASLGDRVTISCRASQDIRSNLNWYQQKPDGTVKLLIYYTSRLHSGVPSRFSGSGSGTDYSLTISNLEQEDIATYFCQQSEKLPRTFGGGTKLEIRR
notes: Chimeric antibody, human IgG4 S228P / human kappa; also called 11E10 in human IgG4SP / human Kappa
Binder B4 has a Kd [1] of 3.8 nM, a koff [1] of 0.0011 s⁻¹ and a kon [1] of 280000 M⁻¹ s⁻¹.

B5: LYV390 (30C11-IgG4) (antibody, V domains shown)
VH: QIQLVQSGPELKKPGESVKISCKASGYTFTDYAMHWVKQAPGKALKWMGLINTYTGKPTYVDDLKGRFVFSLEASASTAKLQISNLKNEDTAIYFCARYYHDGTYYGWFANWGQGTLVTVSS
VL: DTVLTQSPALAVSPGERVTVSCGATESVSTALNWYQQKPGQQPRLLIYGASNLESGVPARFSGSGSGTDFTLSIDPVEADDTATYFCQQTWNDPLTFGSGTKLEIKR
notes: Chimeric antibody, human IgG4 S228P / human kappa; also called 30C11 in hG4SP / human kappa
B5 was tested, and the Kd [1] was 5.3 nM, the koff [1] was 0.0014 s⁻¹ and the kon [1] was 260000 M⁻¹ s⁻¹. The “EC50 (read off the curve)” value [2] was about 0.04 nM.

B6: LYV370 (20A12-IgG4) (antibody, V domains shown)
VH: QIQLVQSGPELKKPGETVKISCKASGYTFTTYGMSWVKQAPGKGLKWMGWINTYSGVPTYADDFKGRFAFSLETSASTAYLQINNLKNEDMAIYFCARGYGSPDYWGQGTTLTVSS
VL: QIVLTQSPAIMSASPGEKVTMTCSASSSVSYMNWYQQKSGTSPKRWIFDTSKLASGVPARFSGSGSGTSYSLTISSMEAEDAATYYCQQWSGNPPISTFGSGTKLEIKR
notes: Chimeric antibody: hybridoma variable domains on human IgG4 constant region with hinge S228P (EU numbering) and human kappa constant region; S228P is already in the full chain entry; also called 20A12 in human IgG4SP / human kappa
With B6 the Kd [1] was 5.7 nM, the koff [1] was 0.001 s⁻¹ and the kon [1] was 180000 M⁻¹ s⁻¹. B6: binds [2].
